system: Escherichia coli TOP10; assay: shrunken log2 fold change of peptide-encoding DNA abundance (4.5 h post-induction vs induction); higher = less antimicrobial activity (less host growth inhibition); details: time post-induction: 4.5 h; library: site-saturation at positions 5, 18, 19, 20
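Further: peptides expressed intracellularly from a pBAD plasmid library in pooled LB shake-flask culture, induced with 0.3% L-arabinose, DNA abundance read by NGS, three biological replicates, DESeq2 with apeglm shrinkage.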

Sequence | shrunken log2 fold change
RRIRLRPPRLPRPRPRPPAPPRP | 0.789
RRIRGRPPRLPRPRPRPMSMPRP | 0.257
RRIRMRPPRLPRPRPRPPLTPRP | 0.843
RRIRIRPPRLPRPRPRPYYLPRP | -0.423
RRIRMRPPRLPRPRPRPKGWPRP | 1.75
RRIRKRPPRLPRPRPRPGIRPRP | 0.267
RRIRQRPPRLPRPRPRPCNGPRP | -0.0134
RRIRHRPPRLPRPRPRPPDRPRP | 0.385
RRIRNRPPRLPRPRPRPPHYPRP | -0.245
RRIRNRPPRLPRPRPRPPYSPRP | -0.604
RRIRKRPPRLPRPRPRPDSDPRP | 0.123
RRIRGRPPRLPRPRPRPPMLPRP | 0.555
RRIRNRPPRLPRPRPRPCKAPRP | -0.1
RRIRARPPRLPRPRPRPMQEPRP | 0.421
RRIRQRPPRLPRPRPRPRQMPRP | 0.297
RRIRKRPPRLPRPRPRPEYQPRP | 0.0313
RRIRMRPPRLPRPRPRPDEYPRP | 1.62
RRIRDRPPRLPRPRPRPYHKPRP | -0.0174
RRIRIRPPRLPRPRPRPPFCPRP | -0.256
RRIRWRPPRLPRPRPRPEPHPRP | 0.65
RRIRKRPPRLPRPRPRPPYEPRP | 0.0908
RRIRRRPPRLPRPRPRPRLDPRP | 0.347
RRIRQRPPRLPRPRPRPASDPRP | 0.197
RRIRERPPRLPRPRPRPVMEPRP | -0.0566
RRIRRRPPRLPRPRPRPEWCPRP | 0.17

Sequence | shrunken log2 fold change
RRIRTRPPRLPRPRPRPWKMPRP | -0.0793
RRIRFRPPRLPRPRPRPLQHPRP | -0.134
RRIRRRPPRLPRPRPRPRGLPRP | 0.396
RRIRNRPPRLPRPRPRPAIFPRP | -0.424
RRIRVRPPRLPRPRPRPMSKPRP | -0.0756
RRIRPRPPRLPRPRPRPERNPRP | -0.307
RRIRPRPPRLPRPRPRPSCIPRP | -0.749
RRIRRRPPRLPRPRPRPLKCPRP | 0.0734
RRIRRRPPRLPRPRPRPMWVPRP | -0.135
RRIRVRPPRLPRPRPRPKDSPRP | -0.327
RRIRCRPPRLPRPRPRPTPAPRP | 0.933
RRIRWRPPRLPRPRPRPVASPRP | 0.27
RRIRWRPPRLPRPRPRPGPNPRP | 0.194
RRIRNRPPRLPRPRPRPGYRPRP | -0.514
RRIRVRPPRLPRPRPRPEEHPRP | -0.0681
RRIRGRPPRLPRPRPRPEKYPRP | 0.172
RRIRDRPPRLPRPRPRPWMAPRP | -0.499
RRIRQRPPRLPRPRPRPNRWPRP | -0.0161
RRIRMRPPRLPRPRPRPNIQPRP | -0.112
RRIRQRPPRLPRPRPRPMIGPRP | 0.0241
RRIRTRPPRLPRPRPRPMAHPRP | -0.161
RRIRFRPPRLPRPRPRPELHPRP | -0.235
RRIRLRPPRLPRPRPRPARMPRP | 0.386
RRIRRRPPRLPRPRPRPTEWPRP | 0.446
RRIRDRPPRLPRPRPRPRDQPRP | 0.477

Sequence | shrunken log2 fold change
RRIRERPPRLPRPRPRPFKHPRP | -0.255
RRIRMRPPRLPRPRPRPTCEPRP | 0.745
RRIRKRPPRLPRPRPRPRENPRP | 0.559
RRIRERPPRLPRPRPRPMDQPRP | -0.00192
RRIRKRPPRLPRPRPRPPDGPRP | 0.992
RRIRQRPPRLPRPRPRPEDCPRP | 0.0138
RRIRNRPPRLPRPRPRPFSQPRP | -0.021
RRIRYRPPRLPRPRPRPDCWPRP | -0.105
RRIRTRPPRLPRPRPRPWYIPRP | -0.146
RRIRWRPPRLPRPRPRPMMKPRP | 0.155
RRIRWRPPRLPRPRPRPKKCPRP | 0.18
RRIRVRPPRLPRPRPRPHPEPRP | -0.155
RRIRVRPPRLPRPRPRPMCRPRP | -0.0485
RRIRMRPPRLPRPRPRPDDQPRP | -0.0167
RRIRDRPPRLPRPRPRPCQMPRP | -0.00455
RRIRDRPPRLPRPRPRPGSYPRP | -0.0689
RRIRIRPPRLPRPRPRPCNHPRP | -0.232
RRIRPRPPRLPRPRPRPRGDPRP | 1.81
RRIRYRPPRLPRPRPRPSQGPRP | -0.031
RRIRHRPPRLPRPRPRPWFWPRP | 0.0142
RRIRSRPPRLPRPRPRPQTSPRP | -0.157
RRIRRRPPRLPRPRPRPACYPRP | 0.488
RRIRCRPPRLPRPRPRPSLLPRP | -0.386
RRIRWRPPRLPRPRPRPTFMPRP | -0.172
RRIRVRPPRLPRPRPRPMERPRP | 0.0131

Source: the supplement of paper PMC9112550, “Optimization of the antimicrobial peptide Bac7 by deep mutational scanning” (BMC Biology, 2022)
